# Measurements reported in patent publication US20090175789A1.
# Biological target: human LDL (Low Density Lipoprotein) receptor (human) (UniProt P01130)
# Assay: competition by flow cytometry on A549 cells: unlabelled LDLs (varied, 16-fold excess) reduce the binding of 12G4 (30 µg/mL) to LDL-R
# Chain of human LDL (Low Density Lipoprotein) receptor (human) (P01130 22-860): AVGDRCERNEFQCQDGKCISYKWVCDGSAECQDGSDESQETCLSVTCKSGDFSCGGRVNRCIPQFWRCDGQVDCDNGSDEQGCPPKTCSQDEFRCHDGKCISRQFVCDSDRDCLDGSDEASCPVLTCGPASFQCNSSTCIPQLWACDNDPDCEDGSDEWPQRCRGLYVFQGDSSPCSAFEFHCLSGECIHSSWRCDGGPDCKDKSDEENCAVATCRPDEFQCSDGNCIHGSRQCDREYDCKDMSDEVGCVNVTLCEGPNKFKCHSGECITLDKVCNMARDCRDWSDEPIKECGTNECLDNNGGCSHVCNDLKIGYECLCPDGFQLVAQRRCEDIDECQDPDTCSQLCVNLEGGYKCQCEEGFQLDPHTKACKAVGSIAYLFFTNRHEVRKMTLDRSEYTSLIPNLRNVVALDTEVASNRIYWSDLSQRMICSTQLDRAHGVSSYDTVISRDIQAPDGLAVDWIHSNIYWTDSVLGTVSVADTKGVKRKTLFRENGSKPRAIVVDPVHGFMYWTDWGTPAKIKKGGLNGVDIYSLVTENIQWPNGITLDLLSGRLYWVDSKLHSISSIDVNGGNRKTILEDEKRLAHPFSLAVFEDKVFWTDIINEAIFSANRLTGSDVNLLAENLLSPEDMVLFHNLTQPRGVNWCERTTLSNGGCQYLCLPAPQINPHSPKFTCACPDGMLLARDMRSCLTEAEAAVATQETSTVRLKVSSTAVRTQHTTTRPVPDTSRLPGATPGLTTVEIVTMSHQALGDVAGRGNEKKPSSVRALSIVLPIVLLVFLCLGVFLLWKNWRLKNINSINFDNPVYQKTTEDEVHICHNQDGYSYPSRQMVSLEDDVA
substance,measurement,value
LDLs (Low Density Lipoproteins) (from UniProt P04114 28-4563) (ligand),reduction in the bond,60%
